± gives the standard deviation of the averaged measurements.

This data set relates to ATP. Nature of the data set: switch fluorescence ratio, 500 uM ATP over buffer (Cy3 cluster intensity, sum of 5 cycles each) (fold (ratio)); higher = stronger signal-on switching upon ATP binding; sequences stand for … in TCGTCGGCAGCGTCAGATGTGTATAAGAGACAGTTTTTTTTTTTTTTTTTTTTTTTTT…TC. Particulars: aptamer strand: ATP DNA aptamer (quencher-CACCTGGGGGAGTATTGCGGAGGAAGG + anchor), 100 nM annealed; ATP concentration: 500 uM. In a few lines:
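The fluorescence ratio divides summed target-cycle Cy3 intensity by summed buffer-cycle Cy3 intensity for each cluster and is averaged per switch-domain sequence. Cy3-labelled switching-strand clusters on a modified Illumina MiSeq flow-cell were annealed to 100 nM quencher-labelled ATP aptamer, then imaged in selection buffer and again after 15 min with 500 uM ATP at 22 °C. Five such cycles were run, with NaOH stripping and re-annealing between them, and clusters outside 100-1000 RFU were excluded.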
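Further: ATP exposure 15 min at 22 °C before imaging.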

For ACGGACATCT, the switch fluorescence ratio turned out to be 1.28 ± 0.022. Consider TTTAGCTAGG, for which the switch fluorescence ratio was 1.01 ± 0.033. With GTGAGAGGGG the figure was 1.008 ± 0.0069; with TTGTTGGGGC, 1.02 ± 0.035. With AAACCGGAAC the figure was 2.26 ± 0.1; with ATACGATATT, 1.142 ± 0.0033; with TTATTGGCTT, 0.9895 ± 0.0037.

GCAATAATTT: the switch fluorescence ratio was 2.83 ± 0.52. In the case of GCCCTGTATT, the switch fluorescence ratio amounted to 1.015 ± 0.0048. Consider CGACACTTAG, for which the switch fluorescence ratio stood at 1.049 ± 0.0091. With GTTTGTATGG the figure was 1.01 ± 0.018; with ACAGGGGGAG, 0.983 ± 0.024. The result for CGTGCGGATG reads 1.02 ± 0.0057. With CCAGTCGTCT the figure was 1.02 ± 0.026. CGGGGACTGG: the switch fluorescence ratio stood at 0.9726 ± 0.0072. As to CGTTTGGGGT, the switch fluorescence ratio was 1.002 ± 0.0071. With GCTGCGGGAT the figure was 1.16 ± 0.15; with CCCAGTATGG, 1.001 ± 0.0082; with TAGATTTTTG, 0.982 ± 0.036.

Take GGGAATAGCT: the switch fluorescence ratio amounted to 0.999 ± 0.03. Consider ATCATGGGGT, for which the switch fluorescence ratio worked out at 0.984 ± 0.041. Regarding TGCAGGGGGC, the switch fluorescence ratio was 1.02 ± 0.022.

Turning to TTAGCAGCGT, the switch fluorescence ratio is 1 ± 0.019. For the sequence GCTGAGGCAA, the switch fluorescence ratio is 1.06 ± 0.015. For TCAAATTTTG, the switch fluorescence ratio was 0.999 ± 0.021. With AAAAACACCG the figure was 1.09 ± 0.078. With TTCTTAGTGT the figure was 0.97 ± 0.027; with ATCAAGTCTT, 0.99 ± 0.016. As for GGTGTCGGGT, the switch fluorescence ratio came out at 0.99 ± 0.012. Turning to ATAGTACAGG, the switch fluorescence ratio worked out at 1.08 ± 0.011. With CACGTTATAG the figure was 1.19 ± 0.026; with AGCGGGGGTT, 0.9996 ± 0.0055; with TACGAGAGCC, 1.04 ± 0.037. With GAATAGAGGT, the switch fluorescence ratio worked out at 1.02 ± 0.037. With AGCAACATAA the figure was 1.13 ± 0.022; with ATTGGATTTT, 1 ± 0.028; with TAATGTGTTG, 0.994 ± 0.014. ATATAGAAAG: the switch fluorescence ratio came out at 1.02 ± 0.045.

In the case of GTTTAACGGG, the switch fluorescence ratio was 1.03 ± 0.051.

On to GCTCGATTGG, for which the switch fluorescence ratio is 0.9766 ± 0.0057.

As to CTCAGTATCT, the switch fluorescence ratio worked out at 0.972 ± 0.041. With TGCTAGCCGG the figure was 1 ± 0.015. With CGACATCGCA the figure was 1.321 ± 0.0068; with ATGGTTGGGG, 0.994 ± 0.031. With TCTCGGGGCT, the switch fluorescence ratio turned out to be 0.97 ± 0.011. With CTAATTTTTG the figure was 1 ± 0.024. With TGGGTCGGGT the figure was 0.9817 ± 0.0088; with GGGCTAAAAC, 0.971 ± 0.035. In the case of GGTGTTTCGC, the switch fluorescence ratio stood at 0.994 ± 0.0095. On to AAACGTAATA, for which the switch fluorescence ratio worked out at 1.31 ± 0.014. On to GGTTGACATA, for which the switch fluorescence ratio came out at 1.01 ± 0.025. The result for ATCGGTAGGT reads 0.99 ± 0.019; that for AGGAGGGTTA, 1 ± 0.028; that for AGTAGAGGGA, 0.995 ± 0.019. With GGAGGGATCT the figure was 0.966 ± 0.011. With TTGTGGGTAC the figure was 1.0042 ± 0.0004; with GGAATTTCTT, 1.01 ± 0.047; with ACGTTTTAAG, 1.01 ± 0.032.

As to GAGCACAGGT, the switch fluorescence ratio amounted to 2.33 ± 0.12. In the case of GCTGCTTGGG, the switch fluorescence ratio is 1.01 ± 0.019. For the sequence GCGATAAAGC, the switch fluorescence ratio worked out at 1.03 ± 0.041. The result for TCCCACTGCT reads 1.03 ± 0.034; that for CCCATTGGGG, 1.03 ± 0.011; that for GACCGATTGT, 1.03 ± 0.065.

On to GCAGAAGTAC, for which the switch fluorescence ratio worked out at 2.37 ± 0.075. With CGCAGGTGGG the figure was 1.08 ± 0.042.

Values taken from the supplement of paper PMC10126150.
